Measured values: paper PMC8837605, “In vitro reconstitution of an efficient nucleotide excision repair system using mesophilic enzymes from Deinococcus radiodurans”

Columns and labels:
drUvrA1 [1] = molecular target: T1, drUvrA1 (Deinococcus radiodurans, UniProt Q46577 1-1016); test: fluorescence polarization; 2.5 mM Mg2+, 2.5 mM ATP; Hill 2.10; 50 mM Tris pH 7.5, 50 mM KCl, 5 mM DTT, 0.01% Tween 20, 2.5 mM MgCl2, 2.5 mM ATP, 0.1 mg/mL BSA; room temperature; 2 nM DNA, 0-1 uM drUvrA1 (dimer); details: protein: recombinant; tags: N-terminal His-tag removed by TEV; chain copies: 2; label: 5'-ATTO633 on strand 1; internal fluorescein-dT; blunt
drUvrA1 [2] = molecular target: T1, drUvrA1; test: fluorescence polarization; 2.5 mM Mg2+, 2.5 mM ATP; Hill 1.34; 50 mM Tris pH 7.5, 50 mM KCl, 5 mM DTT, 0.01% Tween 20, 2.5 mM MgCl2, 2.5 mM ATP, 0.1 mg/mL BSA; room temperature; 2 nM DNA, 0-1 uM drUvrA1 (dimer); details: protein: recombinant; tags: N-terminal His-tag removed by TEV; chain copies: 2; label: 5'-ATTO633 on strand 1; internal fluorescein-dT; blunt
drUvrA1 [3] = molecular target: T1, drUvrA1; test: fluorescence polarization; 2.5 mM Mg2+, 2.5 mM ATP; Hill 0.92; 50 mM Tris pH 7.5, 50 mM KCl, 5 mM DTT, 0.01% Tween 20, 2.5 mM MgCl2, 2.5 mM ATP, 0.1 mg/mL BSA; room temperature; 2 nM DNA, 0-1 uM drUvrA1 (dimer); details: protein: recombinant; tags: N-terminal His-tag removed by TEV; chain copies: 2; label: 5'-FAM on strand 1; blunt
drUvrA1 [4] = molecular target: T1, drUvrA1; test: fluorescence polarization; 2.5 mM Mg2+, 2.5 mM ATP; Hill 0.97; 50 mM Tris pH 7.5, 50 mM KCl, 5 mM DTT, 0.01% Tween 20, 2.5 mM MgCl2, 2.5 mM ATP, 0.1 mg/mL BSA; room temperature; 2 nM DNA, 0-1 uM drUvrA1 (dimer); details: protein: recombinant; tags: N-terminal His-tag removed by TEV; chain copies: 2; label: 5'-FAM on strand 1; blunt

T1 sequence (Q46577 whole entry): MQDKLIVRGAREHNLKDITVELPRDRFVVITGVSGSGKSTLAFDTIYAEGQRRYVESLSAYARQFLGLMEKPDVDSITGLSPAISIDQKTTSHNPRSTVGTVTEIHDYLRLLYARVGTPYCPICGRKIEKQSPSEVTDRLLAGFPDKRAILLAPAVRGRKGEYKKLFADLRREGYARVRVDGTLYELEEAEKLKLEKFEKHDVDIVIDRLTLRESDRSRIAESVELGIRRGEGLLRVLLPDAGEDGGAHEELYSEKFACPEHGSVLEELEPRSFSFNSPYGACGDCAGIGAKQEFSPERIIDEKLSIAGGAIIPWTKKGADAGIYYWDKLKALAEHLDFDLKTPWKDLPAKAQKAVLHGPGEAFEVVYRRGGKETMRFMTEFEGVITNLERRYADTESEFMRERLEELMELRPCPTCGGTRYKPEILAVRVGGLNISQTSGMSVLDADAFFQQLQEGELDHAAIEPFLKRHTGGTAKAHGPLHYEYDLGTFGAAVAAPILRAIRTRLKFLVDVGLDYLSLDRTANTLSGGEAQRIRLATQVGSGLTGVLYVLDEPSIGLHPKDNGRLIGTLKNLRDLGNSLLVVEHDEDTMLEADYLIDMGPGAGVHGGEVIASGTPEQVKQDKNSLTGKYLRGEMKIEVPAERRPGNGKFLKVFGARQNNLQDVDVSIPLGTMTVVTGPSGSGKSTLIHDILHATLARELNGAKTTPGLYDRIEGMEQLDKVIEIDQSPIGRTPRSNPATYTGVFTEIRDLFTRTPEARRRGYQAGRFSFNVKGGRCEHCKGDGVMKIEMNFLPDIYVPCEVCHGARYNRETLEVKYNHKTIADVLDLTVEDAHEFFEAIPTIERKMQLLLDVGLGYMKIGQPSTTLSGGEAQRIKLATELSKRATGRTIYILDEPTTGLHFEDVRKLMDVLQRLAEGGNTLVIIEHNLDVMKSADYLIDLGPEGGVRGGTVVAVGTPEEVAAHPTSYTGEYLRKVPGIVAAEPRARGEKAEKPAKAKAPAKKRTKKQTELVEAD

B1: F26-seq2 (dsDNA)
DNA 1: GTTAGCGAACGATACCTTCAGTAGATCAAGTCCTAGCTGACCGGTTCGGC
DNA 2: GCCGAACCGGTCAGCTAGGACTTGATCTACTGAAGGTATCGTTCGCTAAC
modifications: fluorescein-conjugated dT at position 26 of strand 1
- Kd (drUvrA1 [1]): 9 ± 0.5 nM

B2: F26-seq1 (dsDNA)
DNA 1: GACTACGTACTGTTACGGCTCCATCTCTACCGCAATCAGGCCAGATCTGC
DNA 2: GCAGATCTGGCCTGATTGCGGTAGAGATGGAGCCGTAACAGTACGTAGTC
modifications: fluorescein-conjugated dT at position 26 of strand 1
- Kd (drUvrA1 [2]): 9 ± 0.7 nM

B3: 5'-FAM-seq1 (seq1-FAM) (dsDNA)
DNA 1: B2 DNA 1
DNA 2: B2 DNA 2
- Kd (drUvrA1 [3]): 85 ± 12 nM

B4: B26-seq1 (dsDNA)
DNA 1: B2 DNA 1
DNA 2: B2 DNA 2
modifications: biotin-conjugated dT at position 26 of strand 1
- Kd (drUvrA1 [4]): 128 ± 15 nM
